Source: publication PMC4635001, “Structural Characterisation of FabG from Yersinia pestis, a Key Component of Bacterial Fatty Acid Synthesis” (PLoS ONE, 2015)

Target: the molecule itself
Experiment: crystal structure

B1: Yersinia pestis FabG (ketoacyl-acyl carrier protein reductase) (enzyme)
chain: MSFEGKIALVTGASRGIGRAIAELLVERGACVIGTATSEKGAEAISAYLGENGKGLMLNVVDPTSIDTVLATIRAEFGEVDILVNNAGITRDNLLMRMKDDEWQDIIDTNLTSVFRLSKAVMRAMMKKRFGRIITIGSVVGTMGNAGQVNYAAAKAGVIGFSKSLAREVASRGITVNVVAPGFIETDMTRTLTDDQRAGILAQVPANRLGDAKEIASAVAFLASDEASYISGETLHVNGGMYMI
notes: also called YpFabG; YpFabG TMAO
stoichiometry N: 4
